Laboratory results from patent US20240239901A1.

What was measured:
[1] = target: human purified airway mucins (purified from induced sputum of five asthmatic donors, pooled); assay: plate binding assay: purified mucins coated, FLAG-ITLN-1 with heparin (150 pg/mL as printed) in the binding buffer
[2] = target: human purified airway mucins (purified from induced sputum of five asthmatic donors, pooled); assay: plate binding assay: purified mucins coated, FLAG-ITLN-1 with dextran sulfate (150 pg/mL as printed) in the binding buffer

percent decrease of binding in the presence of heparin [1]: 51.9%
percent decrease of binding in the presence of dextran sulfate [2]: 74%
Substance: FLAG-tagged recombinant ITLN-1 (Sigma, SRP8047) (from UniProt Q8WWA0 19-298) (ligand)
